According to US20240166765A1, “INFLAMMATORY DISEASE TREATMENT USING ANTI-TISSUE FACTOR ANTIBODIES” (Iconic Therapeutics LLC, priority 2020, published 2024):

Tests used:
[1] = molecular target: h1-107_r (human/rat chimera); assay: live cell staining, flow cytometry, HEK293 cells expressing the construct
[2] = molecular target: r141-194_h (rat/human chimera) (UniProt P42533); assay: as above
[3] = molecular target: h1-107_r (human/rat chimera); assay: live cell staining, flow cytometry
[4] = molecular target: r141-194_h (rat/human chimera) (UniProt P42533); assay: live cell staining, flow cytometry

h1-107_r (human/rat chimera), sequence (chain, as listed by the source mutant limits assumed): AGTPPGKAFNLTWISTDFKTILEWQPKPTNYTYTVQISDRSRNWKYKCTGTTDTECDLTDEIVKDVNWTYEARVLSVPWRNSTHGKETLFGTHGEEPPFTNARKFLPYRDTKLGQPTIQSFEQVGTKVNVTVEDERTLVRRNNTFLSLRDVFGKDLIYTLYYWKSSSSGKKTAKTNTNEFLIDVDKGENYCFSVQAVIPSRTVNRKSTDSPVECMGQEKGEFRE

For 5G9 (antibody), the Percentage antibody binding to TF construct relative to hTF [1] was < 50%, the Percentage antibody binding to TF construct relative to hTF [2] was < 50% and the Percent antibody binding to TF construct relative to hTF [3] was 41%. It also gave a Percent antibody binding to TF construct relative to hTF [4] of 32%.
